Measured values taken from patent EP4671282A1.
Where two headings read alike, the source gives them in different places.

Key:
[1] = target: human IL-36R full-length protein stably expressed on CHO-K1 cells (human) (UniProt Q9HB29); experiment: FACS, CHO-K1 cells overexpressing human IL-36R
[2] = target: human IL-36R full-length protein stably expressed on CHO-K1 cells (human) (UniProt Q9HB29); experiment: FACS, CHO-K1 cells overexpressing human IL-36R; remark: listed apart in the source
[3] = target: human BAFF (ACROBiosystems, BAF-H52D4) (human) (UniProt Q9Y275); experiment: ELISA, test sample coated, His-tagged BAFF in solution

human IL-36R full-length protein stably expressed on CHO-K1 cells (human), sequence (Q9HB29 20-575 limits assumed): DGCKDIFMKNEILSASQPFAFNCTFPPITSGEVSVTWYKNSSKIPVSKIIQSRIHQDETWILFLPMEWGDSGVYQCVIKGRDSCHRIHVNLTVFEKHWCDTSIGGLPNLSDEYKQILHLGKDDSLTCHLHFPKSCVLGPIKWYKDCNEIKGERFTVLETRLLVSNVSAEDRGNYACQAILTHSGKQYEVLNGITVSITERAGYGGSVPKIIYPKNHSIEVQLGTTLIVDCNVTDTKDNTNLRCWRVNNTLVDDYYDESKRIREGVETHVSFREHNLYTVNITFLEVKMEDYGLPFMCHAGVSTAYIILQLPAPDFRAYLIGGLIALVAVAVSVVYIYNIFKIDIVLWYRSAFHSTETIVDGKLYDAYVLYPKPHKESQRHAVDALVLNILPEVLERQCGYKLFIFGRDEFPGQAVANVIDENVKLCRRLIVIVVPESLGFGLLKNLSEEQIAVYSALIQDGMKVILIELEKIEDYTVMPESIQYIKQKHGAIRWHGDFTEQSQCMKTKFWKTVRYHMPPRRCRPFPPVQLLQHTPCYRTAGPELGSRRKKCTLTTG

Row | Maximum MFI [1] | Maximum MFI [2] | EC50 [3] | Substance
1 | 76 MFI |  |  | hIgG4 (antibody)
2 | 77 MFI | 47 MFI |  | hIgG1 (antibody)
3 |  |  | 0.0215 µM | RCT-18, telitacicept (RC18, RemeGen) (Fc fusion)
